Tests used:
[1] = target: T1, human PD-1 (soluble PD-1 protein, R&D Systems) (human, UniProt Q15116 25-170, limits assumed); assay: BLI, mAb on AHC biosensor, PD-1 as analyte
T1 construct: the kinetics paragraphs say only 'PD-1' / 'antigen'; also called hPD-1; soluble PD-1 immunogen
Method: The binding specificity and affinity of each full-length antibody towards PD-1 were determined using BLI and/or SPR. […] Anti-cyno PD-1 affinity was measured using BLI.
(§1) For BLI, antibodies were loaded onto an Anti-Human IgG Fc (AHC) biosensor using the Octet Red96 system (ForteBio). Loaded biosensors were dipped into antigen dilutions beginning at 300 nM, with 6 serial dilutions at 1:3. Kinetic analysis was performed using a 1:1 binding model and global fitting.

[2] = target: T1, human PD-1 (soluble PD-1 protein, R&D …); assay: BLI (ForteBio), mAb on AHC biosensor, PD-1 as analyte
Method: as §1

PD-1 expressed on cells = PD-1 expressed on cells (human, UniProt Q15116 25-288); assay: cell-based or functional assay
PD-1 expressed on cells, sequence (Q15116 25-288 limits assumed): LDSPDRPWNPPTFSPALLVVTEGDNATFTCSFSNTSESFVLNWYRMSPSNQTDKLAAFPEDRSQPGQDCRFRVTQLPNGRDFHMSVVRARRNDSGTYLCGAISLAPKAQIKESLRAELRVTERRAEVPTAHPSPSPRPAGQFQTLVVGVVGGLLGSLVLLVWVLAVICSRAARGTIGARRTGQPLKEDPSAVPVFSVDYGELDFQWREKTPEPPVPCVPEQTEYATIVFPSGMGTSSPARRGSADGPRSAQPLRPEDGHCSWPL

T1 sequence (Q15116 25-170 limits assumed): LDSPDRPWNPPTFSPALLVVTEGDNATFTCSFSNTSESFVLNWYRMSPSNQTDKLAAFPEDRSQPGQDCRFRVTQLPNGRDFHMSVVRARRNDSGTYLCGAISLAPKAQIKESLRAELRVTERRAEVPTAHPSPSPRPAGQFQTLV

| Binder | Kd [1] | Kd [2] | koff [2] | kon [2] | PD-1/PD-L1 blockage (IC50, µg/ml) (PD-1 expressed on cells) |
| --- | --- | --- | --- | --- | --- |
| A21 (antibody, V domains shown, Tested as full-length mAb expressed in CHO cells; also called antibody 21; L21H21) VH: QVQLVQSGAEVKKPGASVKVSCKASGYTFTSYYMHWVRQAPGQGLEWMGIINPSGSSTSYAQKFQGRVTMTRDTSTSTVYMELSSLRSEDTAVYYCARYGVWGSYRSLDYWGQGTLVTVSS VL: AIQMTQSPSSLSASVGDRVTITCRASQGIRNELGWYQQKPGKAPKLLICAASSLQSGVPSRFSGSGSGTDFTLTISSLQPEDFATYYCLQDYIYPYTFGQGTKLEIK | 13 nM | 13 nM | 0.00142 s⁻¹ | 110000 M⁻¹ s⁻¹ |  |
| A20 (antibody, V domains shown, Tested as full-length mAb expressed in CHO cells; also called antibody 20; L20H20) VH: EVQLVESGGGLVQPGGSLRLSCAASGFTFSFYDMHWVRQAKGKGLEWVSAIGTAGDTYYPGSVKGRFTISRENAKNSLYLQMNSLRAGDTAVYYCARGYCSTTNCFADYFDYWGQGTLVTVSS VL: DIQLTQSPSFLSASVGDRVTITCRASQGISNYLAWYQQKPGKAPKLLIYAASTLQSGVPSRFSGSGSGTEFTLTISSLQPEDFATYYCHQLNSFPLTFGGGTKVEIK | 148 nM | 148 nM | 0.00191 s⁻¹ | 13000 M⁻¹ s⁻¹ |  |
| A25 (antibody, V domains shown, Tested as full-length mAb expressed in CHO cells; also called antibody 25; L25H25) VH: QVQLVESGGGVVQPGRSLRLSCAASGFTFSSYGMHWVRQAPGKGLEWVGVIWYDGSIKYYADSVKGRFTISRDNSMNTLNLQMNSLRAEDTAVYYCAGDILTGSFDYWGQGTLVTVSS VL: EIVLTQSPATLSLSPGERATLSCRASQSVSSYLAWYQQKPGQAPRLLIYDASNRATGIPARFSGSGSGTDFTLTISSLEPEDFAVYYCQQRNNWPYTFGQGTKLEIK | 792 nM | 792 nM | 0.0579 s⁻¹ | 73100 M⁻¹ s⁻¹ |  |
| A22 (antibody, V domains shown, Tested as full-length mAb expressed in CHO cells; also called antibody 22; L22H22) VH: QVQLVESGGGVVQPGRSLRLSCAASGFTFSNYGMHWVRQAPGKGLEWVAVIWYDGSNKYYADSVKGRFTISRDNSKNTLYLQMNSLRAEDTAVYYCARLYYYDSSGYYPDAFDIWGQGTMVTVSS VL: DIQMTQSPSSLSASVGDRVTITCRASQGIRNDLGWYQQKPGKAPKRLIYAASSLQSGVPSRFSGSGSGTEFTLTISSLQPEDFATYYCLQHNSYPFTFGPGTKVEIK | 412 nM | 412 nM | 0.00667 s⁻¹ | 16200 M⁻¹ s⁻¹ |  |
| A18 (antibody, V domains shown, Tested as full-length mAb expressed in CHO cells; also called antibody 18; L18H18) VH: QVQLVQSGTEVKKPGASVKVSCQASGYTFTSYDISWVRRAPGQGLEWMGWISAYNGNTNYAQKLQGRVTLTTDTSTSTAYMELRSLRSDDTAVYYCARRYYDILTEGGYYYVLDVWGQGTTVTVSS VL: AIRMTQSPSSFSASTGDRVTITCRASQGISSYLAWYQQKPGKAPTLLIYAASTLQSGVPSRFSGSGSGTDFTLTISCLQSEDFATYYCQQYYSDPPTFGQGTKVEIK | 18.4 nM | 18.4 nM | 0.00228 s⁻¹ | 124000 M⁻¹ s⁻¹ |  |

More lines, in order of falling Kd [1], values ahead:

| Kd [1] | Kd [2] | koff [2] | kon [2] | PD-1/PD-L1 blockage (IC50, µg/ml) (PD-1 expressed on cells) | Binder |
| --- | --- | --- | --- | --- | --- |
| 86.7 nM | 86.7 nM | 0.00294 s⁻¹ | 33900 M⁻¹ s⁻¹ |  | A13 (antibody, V domains shown, Tested as full-length mAb expressed in CHO cells; also called antibody A13; L13H13) VH: QVQLVQSGAEVKKPGASVKVSCKASGYTFTTYGISWVRQAPGQGLEWMGWISAHNGNTNYAQKFQGRVTMTTDTSTSTAYMELRSLRSDDTAVYYCVRDGAVADYYYGMDVWGQGTTVTVSS VL: not shown |
| 8.3 nM | 8.32 nM | 0.00195 s⁻¹ | 235000 M⁻¹ s⁻¹ |  | A15 (antibody, V domains shown, Tested as full-length mAb expressed in CHO cells; also called antibody 15; L15H15) VH: QVQLQESGPGLVKPSETLSLTCTVSGGSISSYYWSWIRQPPGKGLEWIGYIYYSGSTNYNPSLKSRVTISEDTSKNQFSLKLSSVTAADTAVYYCARDEGATFFDYWGQGTLVTVSS VL: not shown |
| 5.1 nM | 5.05 nM | 0.000516 s⁻¹ | 102000 M⁻¹ s⁻¹ | 3.16 µg/mL | A12 (antibody, V domains shown, Tested as full-length mAb expressed in CHO cells; also called antibody A12; L12H12) VH: QVQLVESGGGVVQPGRSLRLSCAASGFTFSSYGMHWVRQAPGKGLEWVAVIWYDGSNKYYADSVKGRFTISRDNSKNTLYLQMNSLRAEDSAVYYCVCNPFDYWGQGTLVTVSS VL: DIQMTQSPSSLSASVGDRVTVTCRSSQGIAHYLAWYQQKPGKVPKVLLYAASTLQSGVPSRFSGSGSGTDFTLTISSLQPEDVATYYCQKYNSAPYTFGQGTKLEIK |
